The experiment addresses T1, IRBP 271-290 (P2) peptide on I-A^b (mouse).
T1 peptide: QTWEGSGVLPCVG
Briefly: multimer staining.

B1: 5 (TCR)
alpha TRAV9-2 TRAJ31 CDR3: CVLSAGNNRIFF
beta TRBV20 TRBJ2-2 CDR3: CGASGPANTGQLYF
For the molecule B1, the binding result is reported as “recognises”.

B2: 1 (TCR)
alpha TRAV12D-3 TRAJ13 CDR3: CALRAGSGTYQRF
beta TRBV3 TRBJ2-7 CDR3: CASSLAGTGVYEQYF
Regarding B2, the binding result is “recognises”.

B3: 3 (TCR)
alpha TRAV16N TRAJ15 CDR3: CAMREGGGGRALIF
beta TRBV15 TRBJ2-3 CDR3: CASSWGRGAETLYF
Turning to B3, the binding result is listed as “recognises”.

B4: 2 (TCR)
alpha TRAV12-2 TRAJ47 CDR3: CALSVYANKMIF
beta TRBV23 TRBJ2-4 CDR3: CSSSQTTNQNTLYF
On to B4, for which the binding result was “recognises”.

B5: 4 (TCR)
alpha TRAV9-4 TRAJ31 CDR3: CAVSPHSNNRIFF
beta TRBV2 TRBJ2-7 CDR3: CASSQEGLGGLGEQYF
Take B5: the binding result was “recognises”.

(Values after PMC10835137 (2024).)
